Experimental data from patent publication US20140235820A1, “METHODS AND COMPOSITIONS FOR MODULATING THE Wnt PATHWAY” (Genentech, Inc., priority 2010, published 2014).

Key:
[1] = target: T1, Wnt9b binding to LRP6 E1E4 (Homo sapiens, UniProt O75581); assay: Wnt9b binding to LRP6 E1E4 in presence of inhibitor; details: inhibitor 125 nM, Wnt 125 nM
T1 construct: construct E1E4-amino acids A20-Q1253 of LPR6; made in house; host or cells: Tni insect cells (baculovirus, secreted)
T1 sequence (O75581 20-1253): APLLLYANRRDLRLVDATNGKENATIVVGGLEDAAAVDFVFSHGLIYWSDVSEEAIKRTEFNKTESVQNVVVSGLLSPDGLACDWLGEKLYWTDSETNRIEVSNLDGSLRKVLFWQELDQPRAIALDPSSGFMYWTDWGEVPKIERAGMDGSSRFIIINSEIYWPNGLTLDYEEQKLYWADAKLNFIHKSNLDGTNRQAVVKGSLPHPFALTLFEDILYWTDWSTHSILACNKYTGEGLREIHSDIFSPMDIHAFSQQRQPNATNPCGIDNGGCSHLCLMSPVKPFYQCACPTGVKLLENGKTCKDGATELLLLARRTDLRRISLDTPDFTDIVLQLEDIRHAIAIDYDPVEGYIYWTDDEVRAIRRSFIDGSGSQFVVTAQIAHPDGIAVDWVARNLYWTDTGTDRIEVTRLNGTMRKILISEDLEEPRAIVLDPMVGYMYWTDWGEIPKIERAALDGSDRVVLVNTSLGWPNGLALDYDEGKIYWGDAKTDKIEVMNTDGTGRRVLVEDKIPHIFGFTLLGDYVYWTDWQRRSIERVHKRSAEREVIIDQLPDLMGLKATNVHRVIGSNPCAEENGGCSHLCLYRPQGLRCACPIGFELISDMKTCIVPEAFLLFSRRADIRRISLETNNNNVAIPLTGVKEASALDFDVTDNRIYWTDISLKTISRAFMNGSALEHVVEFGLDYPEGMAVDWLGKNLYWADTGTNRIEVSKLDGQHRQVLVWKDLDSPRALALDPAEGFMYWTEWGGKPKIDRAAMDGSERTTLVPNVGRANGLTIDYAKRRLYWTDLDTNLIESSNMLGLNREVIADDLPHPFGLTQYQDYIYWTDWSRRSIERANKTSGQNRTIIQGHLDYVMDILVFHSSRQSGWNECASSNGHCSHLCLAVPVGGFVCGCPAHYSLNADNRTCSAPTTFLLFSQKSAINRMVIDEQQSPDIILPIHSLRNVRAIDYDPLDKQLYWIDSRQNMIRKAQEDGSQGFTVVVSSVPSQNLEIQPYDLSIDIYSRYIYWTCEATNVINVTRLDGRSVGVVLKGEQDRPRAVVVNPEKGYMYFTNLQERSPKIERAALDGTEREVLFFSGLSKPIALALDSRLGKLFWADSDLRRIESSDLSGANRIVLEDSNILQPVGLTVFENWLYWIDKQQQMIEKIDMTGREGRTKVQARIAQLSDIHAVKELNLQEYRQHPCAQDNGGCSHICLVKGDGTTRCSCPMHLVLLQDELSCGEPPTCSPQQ
Experimental: (§1) FIG. 11. Wnt binding to LRP6 E1E4 in the presence or absence of Dkk1 or sclerostin.
(§2) Binding kinetics were measured by biolayer interferometry using an Octet Red instrument (ForteBio) as previously described (11). Streptavidin (SA) biosensors were loaded with biotinylated hLRP6 in 50 mMTris, pH 8, 300 mM NaCl, 5% (v/v) glycerol, and 0.05% (w/v) Triton X-100. The loaded biosensors were washed in the same buffer before carrying out association and dissociation measurements for the indicated times. The Kd of each interaction was determined using steady state-analysis through the Octet Red software v6.3. Each reported value represents an average of three or more experiments at different concentrations, with a fitted experimental curve for which the square of the correlation coefficient (R^2) is above 0.96.
(§3) Wnt9b also binds to the E1E2 region but not to the E3E4 region (11). Accordingly, sclerostin inhibits Wnt9b binding to LRP6 E1E4 (FIG. 11). […] Accordingly, Dkk1 inhibits the binding of both Wnt3a and Wnt9b to LRP6 E1E4 (FIG. 11).

[2] = target: T2, Wnt3a binding to LRP6 E1E4 (Homo sapiens, UniProt O75581); assay: Wnt3a binding to LRP6 E1E4 in presence of inhibitor; details: inhibitor 125 nM, Wnt 125 nM
T2 construct: construct E1E4-amino acids A20-Q1253 of LPR6; made in house; host or cells: Tni insect cells (baculovirus, secreted)
T2 sequence (O75581 20-1253): T1 sequence (O75581 20-1253)
Experimental: as §1, §2, §3

LRP6 E4 = target: T3, LRP6 E4 (Homo sapiens, UniProt O75581); assay: Biolayer interferometry binding to LRP6 E4
T3 construct: construct E4-T933-Q1253; made in house; host or cells: Tni insect cells (baculovirus, secreted)
T3 sequence (O75581 933-1253): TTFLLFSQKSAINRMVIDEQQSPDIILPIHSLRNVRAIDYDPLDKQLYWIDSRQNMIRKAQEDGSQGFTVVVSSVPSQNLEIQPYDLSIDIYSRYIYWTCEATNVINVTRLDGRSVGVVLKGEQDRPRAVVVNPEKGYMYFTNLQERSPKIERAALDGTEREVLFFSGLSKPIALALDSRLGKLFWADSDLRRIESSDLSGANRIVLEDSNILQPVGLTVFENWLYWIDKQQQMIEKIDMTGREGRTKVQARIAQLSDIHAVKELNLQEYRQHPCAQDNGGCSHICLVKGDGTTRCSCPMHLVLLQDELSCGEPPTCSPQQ
Experimental: as §2
The interaction of the different Dkks and sclerostin with various domains of LRP6 was measured using a biolayer interferometry assay (11). Purified receptors contained individual β-propeller-EGF-like units (E1, E2, or E4), two β-propellers (E1E2 or E3E4), or four β-propellers (E1E4))—as follows:
Human LRP6: construct E1E4-amino acids A20-Q1253 of LPR6; construct E1E2-amino acids A20-E631 of LPR6; construct E3E4 amino acids E631-Q1253 of LPR6; construct E1-amino acids A20-D325 of LPR6; construct E2-amino acids […]-E631 of LPR6; construct E4-T933-Q1253. The individual LRP6 β-propeller E3 could not be expressed.

Substance | inhibition of Wnt9b binding to LRP6 E1E4 [1] | inhibition of Wnt3a binding to LRP6 E1E4 [2] | binding to LRP6 E4 (in words) (LRP6 E4)
sclerostin: Sclerostin protein, Wnt pathway inhibitor, expressed in insect cells (LPNAIGR) | inhibits | unable to inhibit | 
Dkk1: Dickkopf 1 protein, Wnt pathway inhibitor, expressed in insect cells (NSNAIKN) | inhibits | inhibits | undetectable
